US7482133B2, “Catalytic domains of β(1,4)-galactosyltransferase I having altered donor and acceptor specificities, domains that promote in vitro protein folding, and methods for their use” (The United States of America as represented by the …, priority 2003, dated 2009)

Assays:
[1] = Stability of the folded recombinant proteins; format: physicochemical; conditions: after folding and purification from inclusion bodies
Procedure: Mutation of the stem region of bovine β4Gal-T1 to inhibit proteolysis: The wild-type bovine SRCDβ4Gal-T1, which has Ser at position 96, was expressed in E. coli. […] The protein was electroblotted to polyvinylidene difluoride membrane, and the N-terminal sequence of the cleaved fragment was determined by Edman degradation at the Protein Chemistry Laboratory, NCI-Frederick. The N-terminal sequence of the fragment was determined as SRAPSNLD (SEQ ID NO: 21). This corresponds to the cleavage at Ser96 within the sequence region KPR^96SRAPSNLD (SEQ ID NO: 22). To prevent this proteolytic digestion within the stem region, we now constructed a mutant substituting Ala in place of Ser96. This prevented the cleavage within the stem region of bovine β4Gal-T1 keeping the recombinant protein intact for a long period of time. Even though, the experimental results described in this study are with the mutant bovine S96A-SRCDβ4Gal-T1 (FIG. 3A), for the sake of convenience in abbreviation this protein is simply referred to as bovine SRCDβ4Gal-T1.

[2] = β4Gal-T1 enzyme assay of in vitro folded CD and SRCD proteins; format: biochemical; conditions: folded under condition I
Procedure: β4Gal-T1 Enzyme Assays: The in vitro assay for β4Gal-T1 enzyme activity was performed as described (Boeggeman et al., Glycobiology, 12:395-407 (2002)). The ^3H-labeled-UDP-Gal was used as sugar donor and GlcNAc as the sugar acceptor. A reaction without GlcNAc was used as a control.
Binding of recombinant proteins to UDP-affinity column: UDP-agarose was used to bind the active proteins at 4° C. Columns containing 1 ml bed volume of UDP-agarose were pre-equilibrated with 10 ml of 25 mM cacodylic buffer, pH 7.6, containing 25 mM MnCl2. The renatured protein solutions (0.5 mg) were adjusted to the pre-equilibration buffer conditions and applied to the columns. After loading the sample, the pass-through was re-cycled. It was then analyzed for the unbound protein by SDS-PAGE. The columns were washed 3× with 1-ml portions of equilibration buffer. The bound protein was eluted with the elution buffer consisting of 25 mM cacodylic buffer, pH 7.6, 25 mM EDTA and 1 M NaCl. Fractions of 0.5 ml were collected from the columns, and aliquots were analysed by SDS-PAGE. For enzymatic analysis the appropriate fractions were pooled and dialysed against 50 mM Tris-HCl pH 8.0 at 4° C. […]

[3] = GalNAc-T specific activity assay; format: biochemical
Procedure: (§1) For example, the galactose and N-acetylgalactosyltransferase activity of β(1,4)-galactosyltransferase I can be determined using the following assay conditions. […], 10 mM MnCl2, 10 mM Tris-HCl (pH 8.0), 500 μM UDP-Gal or UDP-GalNAc, and 20 ng of β(1,4)-galactosyltransferase I can be incubated at 37° C. for 10 minutes to promote coupling of a donor sugar to an acceptor sugar. While these conditions are provided as an example, it is understood that many other conditions may be used to chemically link a donor to an acceptor using the altered catalytic domains of the invention.
(§2) Gal-T and GalNAc-T Enzyme Assays: The protein concentrations were measured using the Bio-Rad protein assay kit, based on the method of Bradford and further verified on SDS gel. […] The activities were measured using UDP-Gal or UDP-GalNAc as sugar nucleotide donors, and GlcNAc and Glc as the acceptor sugars. For the specific activity measurements, […], 10 mM MnCl2, 10 mM Tris-HCl, pH 8.0, 500 μM UDP-Gal or UDP-GalNAc, 20 ng of Gal-T1, and 0.5 μCl of [^3H]UDP-Gal or [^3H]UDP-GalNAc was used for each Gal-T or GalNAc-T reaction. The incubation was carried out at 37° C. for 10 min. […] The column was washed successfully with 300, 400, and 500 μl of water, and the column flow-through was diluted with Biosafe scintillation fluid; radioactivity was measured with a Beckman counter. A reaction without the acceptor sugar was used as a control. A similar assay was carried out to measure the GalNAc-T activity with Glc and other acceptors in the presence of 50 μM bovine LA (Sigma).

[4] = GalNAc-T activity in absence and presence of LA, acceptor Glucosamine; format: biochemical; conditions: acceptor Glucosamine 100 mM, 500 μM UDP-GalNAc, 37° C., 10 minutes
Procedure: (§3) Gal-T and GalNAc-T Enzyme Assays: The protein concentrations were measured using the Bio-Rad protein assay kit, based on the method of Bradford and further verified on SDS gel. […] The activities were measured using UDP-Gal or UDP-GalNAc as sugar nucleotide donors, and GlcNAc and Glc as the acceptor sugars. For the specific activity measurements, a 100-μl incubation mixture containing 50 mM β-benzyl-GlcNAc, 10 mM MnCl2, 10 mM Tris-HCl, pH 8.0, 500 μM UDP-Gal or UDP-GalNAc, 20 ng of Gal-T1, and 0.5 μCl of [^3H]UDP-Gal or [^3H]UDP-GalNAc was used for each Gal-T or GalNAc-T reaction. The incubation was carried out at 37° C. for 10 min. […] The column was washed successfully with 300, 400, and 500 μl of water, and the column flow-through was diluted with Biosafe scintillation fluid; radioactivity was measured with a Beckman counter. A reaction without the acceptor sugar was used as a control. […]

[5] = GlcNAc-T specific activity assay; format: biochemical; conditions: donor 500 μM; acceptor β-benzyl-GlcNAc 25 mM
[6] = Two-substrate kinetic constants, GalNAc-T reaction; format: biochemical
Description: (§4) Studies for Determining the Kinetic Constants: The true Km of the donor (KA) and of the acceptor (KB), the dissociation constant of the donor, Ki(a), and kcat were obtained using two-substrate analyses and the primary plots of five concentrations of donor (UDP-Gal or UDP-GalNAc) and five concentrations of acceptor, and the corresponding secondary plots of the intercepts and slopes. Initial rate conditions were linear with respect to time. A suitable range of donor and acceptor concentrations were chosen, which allowed an accurate Michaelis-Menten plot to be derived. The data were also analyzed for a general two-substrate system using the following equations (Zhang et al., Glycobiology, 9:815-822 (1999)) with the software EnzFitter, a Biosoft nonlinear curve-fitting program for Windows.
(§5) [formula] Here v is the initial velocity and the rate equation for sequential symmetrical initial velocity pattern associated with Equation 1, an ordered or random equilibrium mechanism in which substrate A dissociates well from the E-S complex with a dissociation constant of Ki(a). Equation 2 is for asymmetric initial velocity pattern for a double displacement or “ping-pong” mechanism. The kinetic parameters KA, KB, Ki(a), and Vmax, were obtained from the fitted curves using the above rate equations. The graphical method and EnzFitter program gave very similar kinetic parameters. In the N-acetylgalactosamine transferase (GalNAc-T) assay, the maximum substrate concentrations used for UDP-GalNAc and GlcNAc were 1 and 200 mM, respectively. However, in the galactose transferase (Gal-T) assay, because of the limited solubility of GlcNAc in water, the concentration of GlcNAc was limited to no more than […] (which is 2-fold higher than its Km value), whereas up to 300 μM UDP-Gal were used.

[7] = GalNAc-T activity in absence and presence of LA, acceptor GlcNAc; format: biochemical; conditions: acceptor GlcNAc 100 mM, 500 μM UDP-GalNAc, 37° C., 10 minutes
Procedure: as §3

[8] = GalNAc-T activity in absence and presence of LA, acceptor Glc; format: biochemical; conditions: for GalNAc-T activity: acceptor Glc 100 mM, 500 μM UDP-GalNAc, 37° C., 10 minutes
Procedure: as §3

[9] = Two-substrate kinetic constants, Gal-T reaction; format: biochemical
Description: as §4, §5

[10] = Gal-T specific activity assay; format: biochemical; conditions: donor 500 μM; acceptor β-benzyl-GlcNAc 25 mM (10 mM for C342T); saturating conditions
Procedure: as §1, §2

[11] = UDP-N-acetylgalactosamine → GlcNAc

B1: human SRCDβ4Gal-T1: human stem region/catalytic domain β4Gal-T1, not mutated (protein, listed as Homo sapiens)
chain: RDLSRLPQLVGVSTPLQGGSNSAAAIGQSSGDLRTGGARPPPPLGASSQPRPGGDSSPVVDSGPGPASNLTSVPVPHTTALSLPACPEESPLLVGPMLIEFNMPVDLELVAKQ
stability against cleavage within the stem region [1]: only after long periods of time | specific activity after elution from UDP-agarose versus before loading [2]: 6 fold

B2: Y289L_C342T: bovine Gal-T1 catalytic domain (residues 130-402), Tyr-289 exchanged with Leu, with Cys-342 to Thr mutation (protein)
chain: SLTACPEESPLLVGPMLIEFNIPVDLKLIEQQNPKVKLGGRYTPMDCISPHKVAIIILFRNRQEHLKYWLYYLHPMVQRQQLDYGIYVINQAGESMFNRAKLLNVGFKEALKDYDYNCFVFSDVDLIPMNDHNTYRCFSQPRHISVAMDKFGFSLPYVQLFGGVSALSKQQFLSINGFPNNYWGWGGEDDDIYNRLAFRGMSVSRPNAVIGKTRMIRHSRDKKNEPNPQRFDRIAHTKETMLSDGLNSLTYMVLEVQRYPLYTKITVDIGTPS
galactose transferase versus N-acetylgalactosyltransferase activity ([3]; comparison in words (Table III, FIG. 1)): equally strong galactose transferase and N-acetylgalactosyltransferase activities | UDP-GalNAc → GlcNAc GalNAc-T activity ([3]; donor 500 μM, acceptor β-benzyl-GlcNAc 25 mM): 27.3 pmol/min/ng | GalNAc-T activity ([4]; +LA 55 μM): 5.0 pmol/min/ng | GalNAc-T activity ([4]; −LA): 1.8 pmol/min/ng | UDP-GlcNAc → GlcNAc GlcNAc-T activity [5]: 8.2 pmol/min/ng | catalytic constant (kcat), fold higher ([6]; GalNAc reaction): 3-5 fold | KA (true Km of the donor), GalNAc-T [6, 11]: 854 (8) μM | KB (true Km of the acceptor), GalNAc-T [6, 11]: 51 (1) mM | Kcat., GalNAc-T [6, 11]: 4.0 | GalNAc-T activity ([7]; +LA 55 μM): 3.3 pmol/min/ng | GalNAc-T activity ([7]; −LA): 31.3 pmol/min/ng | GalNAc-T activity ([8]; +LA 55 μM): 34.8 pmol/min/ng | GalNAc-T activity ([8]; −LA): 2.6 pmol/min/ng | acceptor preference of GalNAc transfer ([8]; in the presence of LA): transfer GalNAc preferably to Glc rather than to GlcNAc | catalytic constant (kcat) relative to wild type ([9]; Gal-T1 reaction): comparable with the wild type | Km for the acceptor relative to wild-type Gal-T1 ([9]; Gal-T reaction): ~20 fold | KA (true Km of the donor), Gal-T ([9]; UDP-galactose → GlcNAc): 75 (1) μM | KB (true Km of the acceptor), Gal-T ([9]; UDP-galactose → GlcNAc): 198 mM | Kcat., Gal-T ([9]; UDP-galactose → GlcNAc, unit assumed): 8.5 s⁻¹ | UDP-galactose → GlcNAc Gal-T activity [10]: 16.2 pmol/min/ng
